Laboratory results as given in IntAct's records for PubMed 28572511.

B1: Lysosomal cobalamin transport escort protein LMBD1 (Homo sapiens), Q9NUN5 (parent)
chain: MATSGAASAELVIGWCIFGLLLLAILAFCWIYVRKYQSRRESEVVSTITAIFSLAIALITSALLPVDIFLVSYMKNQNGTFKDWANANVSRQIEDTVLYGYYTLYSVILFCVFFWIPFVYFYYEEKDDDDTSKCTQIKTALKYTLGFVVICALLLLVGAFVPLNVPNNKNSTEWEKVKSLFEELGSSHGLAALSFSISSLTLIGMLAAITYTAYGMSALPLNLIKGTRSAAYERLENTEDIEEVEQHIQTIKSKSKDGRPLPARDKRALKQFEERLRTLKKRERHLEFIENSWWTKFCGALRPLKIVWGIFFILVALLFVISLFLSNLDKALHSAGIDSGFIIFGANLSNPLNMLLPLLQTVFPLDYILITIIIMYFIFTSMAGIRNIGIWFFWIRLYKIRRGRTRPQALLFLCMILLLIVLHTSYMIYSLAPQYVMYGSQNYLIETNITSDNHKGNSTLSVPKRCDADAPEDQCTVTRTYLFLHKFWFFSAAYYFGNWAFLGVFLIGLIVSCCKGKKSVIEGVDEDSDISDDEPSVYSA
partner: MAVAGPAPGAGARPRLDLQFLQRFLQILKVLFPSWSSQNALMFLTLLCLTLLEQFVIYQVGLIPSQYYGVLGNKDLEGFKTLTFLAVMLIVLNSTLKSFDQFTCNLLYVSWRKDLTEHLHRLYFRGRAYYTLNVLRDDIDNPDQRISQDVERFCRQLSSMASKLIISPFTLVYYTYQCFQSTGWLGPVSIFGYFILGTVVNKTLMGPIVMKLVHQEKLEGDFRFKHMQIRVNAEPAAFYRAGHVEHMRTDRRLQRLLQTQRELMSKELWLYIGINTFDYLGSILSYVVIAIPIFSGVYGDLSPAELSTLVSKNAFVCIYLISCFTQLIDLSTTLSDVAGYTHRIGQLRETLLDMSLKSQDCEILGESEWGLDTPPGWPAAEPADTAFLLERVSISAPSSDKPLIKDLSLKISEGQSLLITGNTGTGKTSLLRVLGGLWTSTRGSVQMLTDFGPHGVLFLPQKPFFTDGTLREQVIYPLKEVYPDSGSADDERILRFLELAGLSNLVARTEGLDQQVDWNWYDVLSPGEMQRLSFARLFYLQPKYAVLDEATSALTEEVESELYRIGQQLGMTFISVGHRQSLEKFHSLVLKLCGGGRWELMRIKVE
B2: Lysosomal cobalamin transporter ABCD4 (Homo sapiens), O14678 (parent)
chain: B1 partner
partner: B1 chain

Variants of: B1
Conditions: with abcd4_human ABCD4, O14678

Row | effect of a mutation on the interaction | Variant
1 | decreasing interaction strength | Y232A

Variants of: B2
Conditions: with lmbd1_human LMBRD1, Q9NUN5

Row | effect of a mutation on the interaction | Variant
2 | decreasing interaction strength | N141K
3 | decreasing interaction strength | R432Q
4 | disrupting interaction strength | G426A;K427L
5 | decreasing interaction strength | G426A
6 | decreasing interaction strength | D548N
7 | decreasing interaction strength | K427L

Variants of: B2
Conditions: with lmbd1_human LMBRD1, Q9NUN5
Remark: another data set of the same source

Row | effect of a mutation on the interaction | Variant
8 | decreasing interaction strength | G426A;K427L
